From article PMC3765158, “Structure Determination and Biochemical Characterization of a Putative HNH Endonuclease from Geobacter metallireducens GS-15” (PLoS ONE, 2013)

B1: Gmet_0936 protein (putative HNH endonuclease) from Geobacter metallireducens GS-15, with C-terminal LEH6 (enzyme, UniProt Q39X46 1-104, looked up)
chain: MNYFIVEVSEQEVKREKEKARELRRSQWWKNRIARGICHYCGEIFPPEELTMDHLVPVVRGGKSTRGNVVPACKECNNRKKYLLPVEWEEYLDSLESEPSDGEG
modifications: selenomethionine in place of methionine (selenomethionine-labeled)
notes: Gmet_0936, putative HNH endonuclease of Geobacter metallireducens GS-15; full-length gene in a pET21 derivative (pGmR87-21.1); molecular mass with tag 13.3 kDa; The SEC with static light scattering used a thawed aliquot of the crystallization stock (the same protein as in the crystal); also called Gme HNHE (H6); Gmet_0936 (H6); source: E. coli BL21 (DE3) pMGK, selenomethionine-labeled, purified …

Assays:
[1] = target: non-His-tagged Gme HNHE (Gmet_0936 cleaved off the intein-CBD fusion, with non-native C-terminal residues LEGSS) (Geobacter metallireducens GS-15); experiment: SEC; Superdex 200 5/150 GL; 10 µl of 4 or 8 mg/ml protein injected; Kav against the standards ribonuclease A, ovalbumin and conalbumin
[2] = target: the molecule itself; experiment: SEC-MALS; analytical gel filtration on Shodex 802.5 at 4°C in 100 mM NaCl, 0.025% NaN3, 100 mM Tris-HCl pH 7.5, static light scattering and refractive index detectors; Debye analysis; data not shown

Molecule	stoichiometry N [1]	stoichiometry N [2]
non-His-tagged Gme HNHE (Gmet_0936 cleaved off the intein-CBD fusion, with non-native C-terminal residues LEGSS) (enzyme)	2	–
B1	–	2
